Reference: article PMC7293044

Biological target: T1, Edc3 (UniProt P39998 1-551)
T1 sequence: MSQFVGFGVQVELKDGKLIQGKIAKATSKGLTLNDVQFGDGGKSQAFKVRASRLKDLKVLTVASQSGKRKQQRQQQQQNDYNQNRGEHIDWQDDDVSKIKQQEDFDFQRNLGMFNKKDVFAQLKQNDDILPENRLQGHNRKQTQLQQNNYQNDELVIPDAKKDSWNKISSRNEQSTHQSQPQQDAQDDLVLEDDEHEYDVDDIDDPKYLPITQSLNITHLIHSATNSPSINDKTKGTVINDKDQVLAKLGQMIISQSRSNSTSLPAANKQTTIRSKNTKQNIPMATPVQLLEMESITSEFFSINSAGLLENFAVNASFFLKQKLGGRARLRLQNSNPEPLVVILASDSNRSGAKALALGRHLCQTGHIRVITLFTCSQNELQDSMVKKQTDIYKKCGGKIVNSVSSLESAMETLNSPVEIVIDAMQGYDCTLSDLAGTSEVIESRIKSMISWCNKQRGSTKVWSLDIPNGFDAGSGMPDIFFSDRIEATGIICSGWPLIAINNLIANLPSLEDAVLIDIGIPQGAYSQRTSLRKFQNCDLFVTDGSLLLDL
Experiment: EMSA

B1: RPS28B 3'UTR stem-loop 60mer (WT) (structured_RNA)
RNA: AUUUUUCAAAAAAUGAAUUAAAUGAUUGAAGUCACUUAAUUUUUGUGGUUUUUUGGAGGU
For B1, the Kd was 2.55 µM.
